From article PMC9499513 (Proceedings of the National Academy of Sciences of the …, 2022) come the findings set out here.

The test deals with histone H4 (X. laevis, UniProt P62799 1-103). The experiment in a line: cryo-EM structure.

B1: IMPORTIN-4 (natural protein)
chain: MESAGLEQLLRELLLPDTERIRRATEQLQIVLRAPAALPALCDLLASAADPQIRQFAAVLTRRRLNTRWRRLAAEQRESLKSLILTALQRETEHCVSLSLAQLSATIFRKEGLEAWPQLLQLLQHSTHSPHSPEREMGLLLLSVVVTSRPEAFQPHHRELLRLLNETLGEVGSPGLLFYSLRTLTTMAPYLSTEDVPLARMLVPKLIMAMQTLIPIDEAKACEALEALDELLESEVPVITPYLSEVLTFCLEVARNVALGNAIRIRILCCLTFLVKVKSKALLKNRLLPPLLHTLFPIVAAEPPPGQLDPEDQDSEEEELEIELMGETPKHFAVQVVDMLALHLPPEKLCPQLMPMLEEALRSESPYQRKAGLLVLAVLSDGAGDHIRQRLLPPLLQIVCKGLEDPSQVVRNAALFALGQFSENLQPHISSYSREVMPLLLAYLKSVPLGHTHHLAKACYALENFVENLGPKVQPYLPELMECMLQLLRNPSSPRAKELAVSALGAIATAAQASLLPYFPAIMEHLREFLLTGREDLQPVQIQSLETLGVLARAVGEPMRPLAEECCQLGLGLCDQVDDPDLRRCTYSLFAALSGLMGEGLAPHLEQITTLMLLSLRSTEGIVPQYDGSSSFLLFDDESDGEEEEELMDEDVEEEDDSEISGYSVENAFFDEKEDTCAAVGEISVNTSVAFLPYMESVFEEVFKLLECPHLNVRKAAHEALGQFCCALHKACQSCPSEPNTAALQAALARVVPSYMQAVNRERERQVVMAVLEALTGVLRSCGTLTLKPPGRLAELCGVLKAVLQRKTACQDTDEEEEEEDDDQAEYDAMLLEHAGEAIPALAAAAGGDSFAPFFAGFLPLLVCKTKQGCTVAEKSFAVGTLAETIQGLGAASAQFVSRLLPVLLSTAQEADPEVRSNAIFGMGVLAEHGGHPAQEHFPKLLGLLFPLLARERHDRVRDNICGALARLLMASPTRKPEPQVLAALLHALPLKEDLEEWVTIGRLFSFLYQSSPDQVIDVAPELLRICSLILADNKIPPDTKAALLLLLTFLAKQHTDSFQAALGSLPVDKAQELQAVLGLS
Regarding B1, the binding result is given as “binds”.
